Laboratory results as given in PMC5623714, “Cofactor Tail Length Modulates Catalysis of Bacterial F420-Dependent Oxidoreductases” (Frontiers in Microbiology, 2017).

Assays:
[1] = target: T1, MSMEG_2027 (F420H2-dependent quinone reductase, FDOR-A) (Mycolicibacterium smegmatis, UniProt A0QU01); assay: intrinsic tryptophan fluorescence quenching; format: binding; conditions: read-out: F420 Kd
T1 construct: recombinant in E. coli BL21(DE3), Ni-NTA purified; monomer
T1 sequence (A0QU01 1-140): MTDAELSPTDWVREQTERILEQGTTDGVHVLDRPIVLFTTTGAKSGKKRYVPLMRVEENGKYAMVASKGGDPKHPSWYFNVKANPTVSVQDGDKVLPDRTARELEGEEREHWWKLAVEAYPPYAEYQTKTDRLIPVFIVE
Text: intrinsic tryptophan fluorescence quenching on MSMEG_2027 (F420H2-dependent quinone reductase, FDOR-A)

[2] = target: T2, Fgd (F420-dependent glucose 6-phosphate dehydrogenase MSMEG_0777) (Mycolicibacterium smegmatis, UniProt A0QQJ4); assay: intrinsic tryptophan fluorescence quenching; format: binding
T2 construct: recombinant in E. coli BL21(DE3), Ni-NTA purified; LLHT family
T2 sequence (A0QQJ4 2-336): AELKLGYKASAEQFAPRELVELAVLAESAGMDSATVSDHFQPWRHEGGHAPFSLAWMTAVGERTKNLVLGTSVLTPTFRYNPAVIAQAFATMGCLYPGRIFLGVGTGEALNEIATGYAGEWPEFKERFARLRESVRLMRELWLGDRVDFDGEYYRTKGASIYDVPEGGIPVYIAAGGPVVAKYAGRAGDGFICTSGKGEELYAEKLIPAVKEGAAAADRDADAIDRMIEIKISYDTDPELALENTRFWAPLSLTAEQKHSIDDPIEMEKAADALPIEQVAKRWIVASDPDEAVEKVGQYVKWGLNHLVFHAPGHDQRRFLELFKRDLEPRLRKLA
Text: intrinsic tryptophan fluorescence quenching on Fgd (F420-dependent glucose 6-phosphate dehydrogenase MSMEG_0777)

[3] = target: T3, MSMEG_3380 (promiscuous F420H2-dependent reductase, FDOR-B) (Mycolicibacterium smegmatis, UniProt A0QXP8); assay: intrinsic tryptophan fluorescence quenching; format: binding; conditions: read-out: F420 Kd
T3 construct: recombinant in E. coli BL21(DE3), Ni-NTA purified; dimer
Text: intrinsic tryptophan fluorescence quenching on MSMEG_3380 (promiscuous F420H2-dependent reductase, FDOR-B)

purified protein [4] = substrate: CC1=CC(=O)c2ccccc2C1=O; assay: purified protein; format: biochemical, Mycolicibacterium smegmatis; conditions: 50 μM long-chain F420H2 (mycobacterial), 200 mM TrisHCl, 0.1% Triton X-100, pH 8.0
purified protein [5] = substrate: O=C1C=CCCC1; assay: purified protein; format: biochemical, Mycolicibacterium smegmatis; conditions: 50 μM long-chain F420H2 (mycobacterial), 200 mM TrisHCl, 0.1% Triton X-100, pH 8.0

Work on `C[C@H](OP(=O)(O)OC[C@@H](O)[C@@H](O)[C@@H](O)Cn1c2nc(=O)[nH]c(=O)c-2cc2ccc(O)cc21)C(=O)N[C@@H](CCC(=O)N[C@@H](CCC(=O)O)C(=O)O)C(=O)O` [F420-2, short-chain F420] yielded a Kd [1] of 1.43 ± 0.12 µM, a Kd [2] of 4.18 ± 0.29 µM and a Kd [3] of 0.57 ± 0.05 µM.

B1: MSMEG_2027 (F420H2-dependent quinone reductase, FDOR-A) (Mycolicibacterium smegmatis MC2 155) (protein)
chain: T1 sequence (A0QU01 1-140)
notes: recombinant in E. coli BL21(DE3), Ni-NTA purified; monomer
Work on B1 yielded a Km (purified protein [4]) of 25.6 ± 9.2 µM, a kcat (purified protein [4]) of 0.084 ± 0.007 s⁻¹ and a kcat/Km (purified protein [4]) of 3280 M⁻¹ s⁻¹.

B2: MSMEG_3380 (promiscuous F420H2-dependent reductase, FDOR-B) (Mycolicibacterium smegmatis MC2 155) (protein)
chain: MVAVPEGYESLLERPLYGHLATVRPDGTPQVNAMWFAWDGEVLRFTHTTKRQKYRNIKANPAVAMSVIDPDNPYRYLEVRGLVEDIVPDPTGAFYLKLNDRYDGPLTEPPADKADRVIIVVRPTAFSKQ
notes: recombinant in E. coli BL21(DE3), Ni-NTA purified; dimer
Work on B2 yielded a Km (purified protein [5]) of 259 ± 41 µM, a kcat (purified protein [5]) of 0.025 ± 0.001 s⁻¹ and a kcat/Km (purified protein [5]) of 96 M⁻¹ s⁻¹.
